From article PMC6650547 (2019) come the findings set out here.

In the test the target is T1, His-SUDV-NP(34-367) (Sudan virus (SUDV), strain Boniface, UniProt Q9QP77 34-367).
T1 chain: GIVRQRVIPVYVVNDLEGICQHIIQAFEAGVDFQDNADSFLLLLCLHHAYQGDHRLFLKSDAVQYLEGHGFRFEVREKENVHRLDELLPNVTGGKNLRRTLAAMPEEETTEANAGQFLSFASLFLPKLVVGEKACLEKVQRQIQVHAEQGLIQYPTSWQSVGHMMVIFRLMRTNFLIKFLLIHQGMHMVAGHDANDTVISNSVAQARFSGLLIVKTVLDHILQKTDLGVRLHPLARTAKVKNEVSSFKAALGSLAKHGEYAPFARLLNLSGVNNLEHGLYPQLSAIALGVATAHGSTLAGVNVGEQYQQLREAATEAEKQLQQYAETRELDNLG
Nature of the test: BLI.

B1: SUDV VP35 wild-type chaperone domain peptide (residues 1 to 34) (peptide)
peptide: MQQDRTYRHHGPEVSGWFSEQLMTGKIPLTEVFV
What is called koff is the first-order rate constant of dissociation. Low readings indicate a long-lived complex, high ones a short-lived complex. The molecule B1 gave a koff of 0.00583 s⁻¹.
